T1: human endothelin A receptor (ETAR), tagged, stably expressed on recombinant CHO cells (human, UniProt P25101 21-427)
T1 sequence: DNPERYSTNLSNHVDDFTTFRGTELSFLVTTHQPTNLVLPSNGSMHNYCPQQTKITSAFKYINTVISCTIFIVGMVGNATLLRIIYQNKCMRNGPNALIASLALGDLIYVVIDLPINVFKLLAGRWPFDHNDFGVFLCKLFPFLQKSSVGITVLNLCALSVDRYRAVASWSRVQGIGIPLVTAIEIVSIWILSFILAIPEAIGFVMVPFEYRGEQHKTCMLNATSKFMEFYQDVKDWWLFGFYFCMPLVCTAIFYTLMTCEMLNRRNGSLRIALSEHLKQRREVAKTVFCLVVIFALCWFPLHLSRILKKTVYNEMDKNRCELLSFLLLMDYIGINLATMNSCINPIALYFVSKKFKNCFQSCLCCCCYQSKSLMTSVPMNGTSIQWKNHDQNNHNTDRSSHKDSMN


Molecular target: T1, human endothelin A receptor (ETAR), …
Test: cell-based or functional assay

| HuET AR Binding IC50 (nM); IP1 assay (IP-one-Gq kit, HTRF 665/620) with 25.0 nM ET-1 | Binder |
| --- | --- |
| 0.0891 nM | murine mAb 312A10E5 (antibody, V domains shown) VH: QIQLVQSGPDLKKPGETVKISCKASGYTFTNYGMSWVKQAPGKGLKWMGWINTYSGESTYADDFKGRFAFSLETSASTAYLQINNLKNEDTATYFCARSLNRDTWFTYWGQGTLVTVSA VL: QAVVTQESALSTSPGETVTLTCRSITGAVTTSNYANWVQEKPDHLFTGLIGGTNNRAPGVPARFSGSLIGDKAALTITGAQTEDEAIYFCALWYSNHWVFGGGTKLTVL |
| 0.0607 nM | murine mAb 336D8G9 (antibody, V domains shown) VH: EVQLQQSGAELVRPGASVKLSCPASGFTIKDYYIHWVKQRPEQGLEWIGRIDPEDGDTEYAPKFQGKATMTADTSSNTAYLHLSSLTSEDTAVYYCTSNWYSNSYWGQGTTLTVSS VL: DVVMTQTPLSLPVSLGDQASISCRSSQSLVHSNGNTYLHWYLQKPGQSPKVLIYKVSNRFSGVPDRFSGSGSGTDFTLKISRVEAEDLGVYFCSQSTHVPYTFGGGTKLEIK |

From US20230212300A1 (REMD BIOTHERAPEUTICS, published 2023)
